Data on two molecules can be found in paper PMC10941548, “Tau induces inflammasome activation and microgliosis through acetylating NLRP3” (Clinical and Translational Medicine, 2024).

For assay [1], the target named is T1, purified human WT full-length Tau protein (Tau441), His-tagged (human, UniProt P10636-8 1-441).
T1 construct: also called purified Tau441 protein; recombinant Tau441; source: E. coli ROSETTA 2(DE3)PLYSS, purified (Ni-NTA) by HUABIO
Briefly: co-IP; competition: TNB peptide (0, 25, 50, 100, 200 µM) and purified Tau441 added to LPS-pretreated BV-2 cells; loss of Tau in the anti-NLRP3 immunoprecipitate. To be noted: both partners purified.

For assay [2], the target named is T1, purified human WT full-length Tau …. In words: pull-down; Flag-NLRP3 (WT or mutant) immunoprecipitated from HEK-293T with anti-Flag on protein A/G agarose beads; incubated with 50 nM purified Tau441 and 1 mM acetyl CoA at 37°C for 2 h in 50 mM HEPES pH 8.0, 10 mM sodium butyrate, 1 mM DTT, 10% glycerol; blot with anti-Tau5 and anti-NLRP3. The conditions noted are these: both partners purified.

T1 sequence (P10636 other isoform, or with tags, fused parts or gaps): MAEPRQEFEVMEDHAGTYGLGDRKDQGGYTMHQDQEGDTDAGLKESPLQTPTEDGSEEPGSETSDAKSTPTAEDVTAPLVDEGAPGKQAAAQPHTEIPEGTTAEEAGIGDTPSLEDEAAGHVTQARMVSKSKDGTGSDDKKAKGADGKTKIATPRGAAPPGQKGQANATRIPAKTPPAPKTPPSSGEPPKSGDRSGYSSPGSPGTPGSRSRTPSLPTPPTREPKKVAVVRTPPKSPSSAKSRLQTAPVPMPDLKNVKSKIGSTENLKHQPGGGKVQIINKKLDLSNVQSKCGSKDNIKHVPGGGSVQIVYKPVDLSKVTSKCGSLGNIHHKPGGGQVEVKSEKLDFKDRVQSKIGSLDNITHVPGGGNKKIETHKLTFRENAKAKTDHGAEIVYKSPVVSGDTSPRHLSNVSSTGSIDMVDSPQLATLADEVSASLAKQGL

B1: Tau–NLRP3-binding blocking (TNB) peptide (peptide)
peptide: LEDLEDVDLKKFKMHLEDYPP
notes: stretch of NLRP3 around K21/K22/K24 in the PYD domain; 2574.89 Da; An FITC-labelled form (FITC-TNB) was used only for microscopy; also called peptide TNB; source: synthetic peptide (Bioyeargene Biosciences, Fmoc solid-phase, purity 95.93%)
For B1, in assay [1], the binding result is reported as “binds”.

B2: Flag-mouse NLRP3 (GV362-EGFP-FLAG-mouse NLRP3), wild type (natural protein, UniProt Q8R4B8 1-1033, looked up)
chain: MTSVRCKLAQYLEDLEDVDLKKFKMHLEDYPPEKGCIPVPRGQMEKADHLDLATLMIDFNGEEKAWAMAVWIFAAINRRDLWEKAKKDQPEWNDTCTSHSSMVCQEDSLEEEWMGLLGYLSRISICKKKKDYCKMYRRHVRSRFYSIKDRNARLGESVDLNSRYTQLQLVKEHPSKQEREHELLTIGRTKMRDSPMSSLKLELLFEPEDGHSEPVHTVVFQGAAGIGKTILARKIMLDWALGKLFKDKFDYLFFIHCREVSLRTPRSLADLIVSCWPDPNPPVCKILRKPSRILFLMDGFDELQGAFDEHIGEVCTDWQKAVRGDILLSSLIRKKLLPKASLLITTRPVALEKLQHLLDHPRHVEILGFSEAKRKEYFFKYFSNELQAREAFRLIQENEVLFTMCFIPLVCWIVCTGLKQQMETGKSLAQTSKTTTAVYVFFLSSLLQSRGGIEEHLFSDYLQGLCSLAADGIWNQKILFEECDLRKHGLQKTDVSAFLRMNVFQKEVDCERFYSFSHMTFQEFFAAMYYLLEEEAEGETVRKGPGGCSDLLNRDVKVLLENYGKFEKGYLIFVVRFLFGLVNQERTSYLEKKLSCKISQQVRLELLKWIEVKAKAKKLQWQPSQLELFYCLYEMQEEDFVQSAMDHFPKIEINLSTRMDHVVSSFCIKNCHRVKTLSLGFFHNSPKEEEEERRGGRPLDQVQCVFPDTHVACSSRLVNCCLTSSFCRGLFSSLSTNRSLTELDLSDNTLGDPGMRVLCEALQHPGCNIQRLWLGRCGLSHQCCFDISSVLSSSQKLVELDLSDNALGDFGIRLLCVGLKHLLCNLQKLWLVSCCLTSACCQDLALVLSSNHSLTRLYIGENALGDSGVQVLCEKMKDPQCNLQKLGLVNSGLTSICCSALTSVLKTNQNFTHLYLRSNALGDTGLRLLCEGLLHPDCKLQMLELDNCSLTSHSCWNLSTILTHNHSLRKLNLGNNDLGDLCVVTLCEVLKQQGCLLQSLQLGEMYLNRETKRALEALQEEKPELTIVFEISW
notes: NOD-like receptor pyrin domain containing 3 (NLRP3), mouse, fusion with Flag; Plasmid from Genechem; also called GV362-EGFP-Flag-NLRP3; NLRP3-protein A/G agarose beads complexes; source: HEK-293T, transfected 48 h, immunoprecipitated with anti-Flag antibody on protein A/G agarose beads
With B2, the binding result in assay [2] was “binds”.
